Source: doi:10.1101/2025.11.23.689978
Several values for one entry are separate records, joined by “and”; a condition that tells them apart may be missing. Equal values may be shown once.

Tests used:
[1] = target: AimC_(BMbtp14), purified (phage BMBtp14 (B. cereus group phage)); assay: SEC-MALS
[2] = target: AimC_(ϕ106), purified (phage ϕ106 (of Bacillus inaquosorum strain KCTC 13429)); assay: SEC-MALS

“AimC_(BMbtp14), purified (natural protein)” was tested, and the stoichiometry N [1] was 2 and 4.

With AimC_(ϕ106), purified (natural protein) the stoichiometry N [2] was 2.
